Values of other authors, collected in publication PMC2702134.

Target: Glu50 (UniProt position 50, LEWIGEINPDS)

Which pKa does the source give for “Catalytic antibody 34E4 (Kemp eliminase)” here?
Its pKa is 6.4.
